Test results as given in publication PMC3025556.

T1: NIP7 (human, recombinant) (Homo sapiens, UniProt Q9Y221 1-180)
T1 sequence: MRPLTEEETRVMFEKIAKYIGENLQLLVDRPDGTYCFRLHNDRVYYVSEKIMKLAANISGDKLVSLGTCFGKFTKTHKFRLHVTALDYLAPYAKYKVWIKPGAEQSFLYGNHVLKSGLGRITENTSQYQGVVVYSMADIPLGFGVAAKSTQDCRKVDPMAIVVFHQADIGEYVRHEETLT

T2: Nip7p (yeast) (Saccharomyces cerevisiae, UniProt Q08962 1-181)
T2 sequence: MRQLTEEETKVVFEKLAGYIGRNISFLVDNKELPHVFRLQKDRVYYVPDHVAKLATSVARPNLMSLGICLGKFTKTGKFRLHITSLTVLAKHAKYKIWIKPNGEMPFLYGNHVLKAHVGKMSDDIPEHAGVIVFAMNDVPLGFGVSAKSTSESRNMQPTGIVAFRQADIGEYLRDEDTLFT


Assays:
[1] = molecular target: T1, NIP7 (human, recombinant); test: EMSA
Nip7p (yeast) = molecular target: T2, Nip7p (yeast); test: EMSA

Binder | binding result [1] | binding result (Nip7p (yeast))
UUAUUAUUUAUUUAUUAUUUA (ssRNA) [poly-AU(21)] | binds | 
UUUUUUUUUUUUUUUUUUUU (ssRNA) [poly-U(20)] |  | binds
